Blank lines part the entries; values can stand above or below the binder they belong to. Positions of bridges follow the written chain, without caps; N, C: chain ends. Non-standard residues stand in square brackets, D forms with d. dPhe(4-CONH2) = NC(=O)c1ccc(C[C@@H](N)C(=O)O)cc1; Phe(4-Cl) = N[C@@H](Cc1ccc(Cl)cc1)C(=O)O
Experiments:
Experiment in all cases: cell-based or functional assay
[1] = target: somatostatin receptor SSTR1 (UniProt P30872 1-391)
[2] = target: somatostatin receptor type 2 (SSTR2) (UniProt P30874 1-369)
Chain of somatostatin receptor type 2 (SSTR2) (P30874 whole entry): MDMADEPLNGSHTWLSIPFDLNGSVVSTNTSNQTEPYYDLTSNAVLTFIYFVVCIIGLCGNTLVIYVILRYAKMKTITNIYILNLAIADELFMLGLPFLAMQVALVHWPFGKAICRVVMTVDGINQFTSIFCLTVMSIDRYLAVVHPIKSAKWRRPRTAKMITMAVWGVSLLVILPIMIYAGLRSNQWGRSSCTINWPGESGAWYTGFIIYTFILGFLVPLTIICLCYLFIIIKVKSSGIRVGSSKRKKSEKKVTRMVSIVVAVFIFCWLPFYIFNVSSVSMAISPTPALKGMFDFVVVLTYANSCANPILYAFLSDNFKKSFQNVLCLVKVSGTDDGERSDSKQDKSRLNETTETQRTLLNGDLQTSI

[3] = target: somatostatin receptor SSTR3 (UniProt P32745 1-418)
Chain of somatostatin receptor SSTR3 (P32745 whole entry): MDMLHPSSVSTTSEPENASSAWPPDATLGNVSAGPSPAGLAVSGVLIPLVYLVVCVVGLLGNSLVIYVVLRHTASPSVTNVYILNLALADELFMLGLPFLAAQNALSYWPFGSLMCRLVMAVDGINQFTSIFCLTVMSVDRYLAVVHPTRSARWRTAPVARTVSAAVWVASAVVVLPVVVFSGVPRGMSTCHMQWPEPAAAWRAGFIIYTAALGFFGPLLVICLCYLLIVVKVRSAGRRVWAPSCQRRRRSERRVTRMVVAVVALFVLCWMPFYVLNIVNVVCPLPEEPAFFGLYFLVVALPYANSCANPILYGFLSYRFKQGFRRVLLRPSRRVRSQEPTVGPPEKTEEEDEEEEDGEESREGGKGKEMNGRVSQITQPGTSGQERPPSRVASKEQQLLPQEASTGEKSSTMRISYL

[4] = target: somatostatin receptor SSTR4 (UniProt P31391 1-388)
Chain of somatostatin receptor SSTR4 (P31391 whole entry): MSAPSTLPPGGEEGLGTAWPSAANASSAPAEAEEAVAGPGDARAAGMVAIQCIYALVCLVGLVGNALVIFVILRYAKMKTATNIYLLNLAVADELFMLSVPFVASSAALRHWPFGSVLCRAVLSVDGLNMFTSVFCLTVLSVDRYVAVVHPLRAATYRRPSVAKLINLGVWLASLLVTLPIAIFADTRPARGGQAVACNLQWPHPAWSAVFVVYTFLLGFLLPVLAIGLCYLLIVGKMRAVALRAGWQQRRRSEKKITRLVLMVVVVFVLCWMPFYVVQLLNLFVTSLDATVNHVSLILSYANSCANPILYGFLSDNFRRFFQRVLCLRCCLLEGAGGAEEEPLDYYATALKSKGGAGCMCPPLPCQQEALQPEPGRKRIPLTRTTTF

[5] = target: somatostatin receptor SSTR5 (UniProt P35346 1-364)
Chain of somatostatin receptor SSTR5 (P35346 whole entry): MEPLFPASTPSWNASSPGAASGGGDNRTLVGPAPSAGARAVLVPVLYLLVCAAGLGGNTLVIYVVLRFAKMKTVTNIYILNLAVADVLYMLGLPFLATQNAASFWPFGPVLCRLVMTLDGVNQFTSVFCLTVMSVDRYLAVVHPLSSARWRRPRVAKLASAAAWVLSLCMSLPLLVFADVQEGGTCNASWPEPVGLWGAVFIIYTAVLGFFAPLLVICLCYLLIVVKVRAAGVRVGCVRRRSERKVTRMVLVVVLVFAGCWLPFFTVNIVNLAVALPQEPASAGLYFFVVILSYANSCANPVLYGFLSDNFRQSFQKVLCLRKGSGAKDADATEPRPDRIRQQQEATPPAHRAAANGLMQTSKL

Chain of somatostatin receptor SSTR1 (P30872 whole entry): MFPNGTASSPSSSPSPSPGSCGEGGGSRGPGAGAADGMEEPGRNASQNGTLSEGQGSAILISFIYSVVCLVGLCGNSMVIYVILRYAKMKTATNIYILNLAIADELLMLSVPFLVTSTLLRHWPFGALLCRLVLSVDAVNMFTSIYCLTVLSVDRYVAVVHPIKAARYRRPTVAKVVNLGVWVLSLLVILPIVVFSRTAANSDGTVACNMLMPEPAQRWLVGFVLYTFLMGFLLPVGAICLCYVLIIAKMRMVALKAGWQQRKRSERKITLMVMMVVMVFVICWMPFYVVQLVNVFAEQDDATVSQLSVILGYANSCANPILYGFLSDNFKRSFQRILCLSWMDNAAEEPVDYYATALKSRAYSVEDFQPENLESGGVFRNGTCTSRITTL

IC50 (PathHunter β-Arrestin, antagonist mode) [1]: > 1000 nM | IC50 (PathHunter β-Arrestin, antagonist mode) [2]: 0.96 nM | IC50 (PathHunter β-Arrestin, antagonist mode) [3]: > 1000 nM | IC50 (PathHunter β-Arrestin, antagonist mode) [4]: > 1000 nM | IC50 (PathHunter β-Arrestin, antagonist mode) [5]: > 1000 nM
B1: Compound 24: H-Cpa-cyclo[D-Cys-Tyr-D-Phe(4-carbamoyl)-Lys(Nε-Me)-Thr-Cys]-D-Tyr-NH2 (peptide)
peptide: H-[Phe(4-Cl)][dC]Y[dPhe(4-CONH2)]K(Me)TC[dY]-NH2
modifications: disulfide 2-7
SMILES: CNCCCC[C@@H]1NC(=O)[C@@H](Cc2ccc(C(N)=O)cc2)NC(=O)[C@H](Cc2ccc(O)cc2)NC(=O)[C@H](NC(=O)[C@@H](N)Cc2ccc(Cl)cc2)CSSC[C@@H](C(=O)N[C@H](Cc2ccc(O)cc2)C(N)=O)NC(=O)[C@H]([C@@H](C)O)NC1=O

IC50 (PathHunter β-Arrestin, antagonist mode) [1]: > 1000 nM | IC50 (PathHunter β-Arrestin, antagonist mode) [2]: 17 nM | IC50 (PathHunter β-Arrestin, antagonist mode) [3]: > 1000 nM | IC50 (PathHunter β-Arrestin, antagonist mode) [4]: > 1000 nM | IC50 (PathHunter β-Arrestin, antagonist mode) [5]: > 1000 nM
B2: Compound 12: H-Cpa-cyclo[D-Cys-Tyr-D-Phe(4-n-pentylamino)-Lys-Thr-Cys]-D-Tyr-NH2 (peptide)
peptide: XXYXKTCX
HELM: PEPTIDE1{[N[C@@H](Cc1ccc(Cl)cc1)C(=O)[*:2]].[dC].Y.[CCCCCNc1ccc(C[C@@H](N[*:1])C(=O)[*:2])cc1].K.T.C.[dY].[am]}$PEPTIDE1,PEPTIDE1,2:R3-7:R3$$$V2.0
SMILES: CCCCCNc1ccc(C[C@H]2NC(=O)[C@H](Cc3ccc(O)cc3)NC(=O)[C@H](NC(=O)[C@@H](N)Cc3ccc(Cl)cc3)CSSC[C@@H](C(=O)N[C@H](Cc3ccc(O)cc3)C(N)=O)NC(=O)[C@H]([C@@H](C)O)NC(=O)[C@H](CCCCN)NC2=O)cc1

IC50 (PathHunter β-Arrestin, antagonist mode) [1]: > 1000 nM | IC50 (PathHunter β-Arrestin, antagonist mode) [2]: 21 nM | IC50 (PathHunter β-Arrestin, antagonist mode) [3]: > 1000 nM | IC50 (PathHunter β-Arrestin, antagonist mode) [4]: > 1000 nM | IC50 (PathHunter β-Arrestin, antagonist mode) [5]: > 1000 nM
B3: Compound 14: H-Cpa-cyclo[DCys-Tyr-D-4-(benzenesulfonyl)Aph-Lys-Thr-Cys]-DTyr-NH2 (peptide)
peptide: XXYXKTCX
HELM: PEPTIDE1{[N[C@@H](Cc1ccc(Cl)cc1)C(=O)[*:2]].[dC].Y.[O=C([C@@H](Cc1ccc(NS(=O)(=O)c2ccccc2)cc1)N[*:1])[*:2]].K.T.C.[dY].[am]}$PEPTIDE1,PEPTIDE1,2:R3-7:R3$$$V2.0
SMILES: C[C@@H](O)[C@@H]1NC(=O)[C@H](CCCCN)NC(=O)[C@@H](Cc2ccc(NS(=O)(=O)c3ccccc3)cc2)NC(=O)[C@H](Cc2ccc(O)cc2)NC(=O)[C@H](NC(=O)[C@@H](N)Cc2ccc(Cl)cc2)CSSC[C@@H](C(=O)N[C@H](Cc2ccc(O)cc2)C(N)=O)NC1=O

IC50 (PathHunter β-Arrestin, antagonist mode) [1]: > 1000 nM | IC50 (PathHunter β-Arrestin, antagonist mode) [2]: 1 nM | IC50 (PathHunter β-Arrestin, antagonist mode) [3]: > 1000 nM | IC50 (PathHunter β-Arrestin, antagonist mode) [4]: > 1000 nM | IC50 (PathHunter β-Arrestin, antagonist mode) [5]: > 1000 nM
B4: Compound 15: H-Cpa-cyclo[D-Cys-Tyr-D-Phe(4-phenylureido)-Lys-Thr-Cys]-D-Tyr-NH2 (peptide)
peptide: XXYXKTCX
HELM: PEPTIDE1{[N[C@@H](Cc1ccc(Cl)cc1)C(=O)[*:2]].[dC].Y.[O=C(Nc1ccccc1)Nc1ccc(C[C@@H](N[*:1])C(=O)[*:2])cc1].K.T.C.[dY].[am]}$PEPTIDE1,PEPTIDE1,2:R3-7:R3$$$V2.0
SMILES: C[C@@H](O)[C@@H]1NC(=O)[C@H](CCCCN)NC(=O)[C@@H](Cc2ccc(NC(=O)Nc3ccccc3)cc2)NC(=O)[C@H](Cc2ccc(O)cc2)NC(=O)[C@H](NC(=O)[C@@H](N)Cc2ccc(Cl)cc2)CSSC[C@@H](C(=O)N[C@H](Cc2ccc(O)cc2)C(N)=O)NC1=O

Reference: patent US20190040102A1 (CDRD VENTURES, published 2019)
